The Human Domainome abundance scans (Beltran et al. 2025)
± gives the uncertainty stated by the source.

B1: SAM and SH3 domain-containing protein 1, residues 630 to 700; numbered along this chain, O94885 (parent)
chain: GRPPQPKSVEDLLDRINLKEHMPTFLFNGYEDLDTFKLLEEEDLDELNIRDPEHRAVLLTAVELLQEYDSN

Variants of: B1
Assay: abundance fitness (aPCA) (normalised: wild type 0, dead -1); higher = more abundant; growth selection in yeast, the domain comes from the species named
Conditions: Homo sapiens

| Variant | abundance fitness |
| --- | --- |
| GRPPQPKSVEDLLDRINLKEHMPTFLFNGYEDLDTFKLLEEEGLDELNIRDPEHRAVLLTAVELLQEYDSN [D43G] | -0.444 ± 0.053 |
| GRPPQPKSVEDLLDRINLKEHMPTFLFNGYEDLDTFKLLEEEMLDELNIRDPEHRAVLLTAVELLQEYDSN [D43M] | -0.594 ± 0.056 |
| GRPPQPKSVEDLLDRINLKEHMPTFLFNGYEDLDTFKLLEEESLDELNIRDPEHRAVLLTAVELLQEYDSN [D43S] | -0.359 ± 0.039 |
| GRPPQPKSVEDLLDRINLKEHMPTFLFNGYEDLDTFKLLEEECLDELNIRDPEHRAVLLTAVELLQEYDSN [D43C] | -0.713 ± 0.079 |
| GRPPQPKSVEDLLDRINLKEHMPTFLFNGYEDLDTFKLLEEELLDELNIRDPEHRAVLLTAVELLQEYDSN [D43L] | -0.894 ± 0.049 |
| GRPPQPKSVEDLLDRINLKEHMPTFLFNGYEDLDTFKLLEEENLDELNIRDPEHRAVLLTAVELLQEYDSN [D43N] | -0.058 ± 0.044 |
| GRPPQPKSVEDLLDRINLKEHMPTFLFNGYEDLDTFKLLEEEKLDELNIRDPEHRAVLLTAVELLQEYDSN [D43K] | -0.117 ± 0.044 |
| GRPPQPKSVEDLLDRINLKEHMPTFLFNGYEDLDTFKLLEEETLDELNIRDPEHRAVLLTAVELLQEYDSN [D43T] | -0.19 ± 0.039 |
| GRPPQPKSVEDLLDRINLKEHMPTFLFNGYEDLDTFKLLEEEPLDELNIRDPEHRAVLLTAVELLQEYDSN [D43P] | -0.939 ± 0.065 |
| GRPPQPKSVEDLLDRINLKEHMPTFLFNGYEDLDTFKLLEEEFLDELNIRDPEHRAVLLTAVELLQEYDSN [D43F] | -1.05 ± 0.085 |
| GRPPQPKSVEDLLDRINLKEHMPTFLFNGYEDLDTFKLLEEEELDELNIRDPEHRAVLLTAVELLQEYDSN [D43E] | -0.503 ± 0.067 |
| GRPPQPKSVEDLLDRINLKEHMPTFLFNGYEDLDTFKLIEEEDLDELNIRDPEHRAVLLTAVELLQEYDSN [L39I] | 0.058 ± 0.041 |
| GRPPQPKSVEDLLDRINLKEHMPTFLFNGYEDLDTFKLYEEEDLDELNIRDPEHRAVLLTAVELLQEYDSN [L39Y] | -0.929 ± 0.078 |
| GRPPQPKSVEDLLDRINLKEHMPTFLFNGYEDLDTFKLWEEEDLDELNIRDPEHRAVLLTAVELLQEYDSN [L39W] | -1.19 ± 0.14 |
| GRPPQPKSVEDLLDRINLKEHMPTFLFNGYEDLDTFKLNEEEDLDELNIRDPEHRAVLLTAVELLQEYDSN [L39N] | -0.851 ± 0.075 |
| GRPPQPKSVEDLLDRINLKEHMPTFLFNGYEDLDTFKLHEEEDLDELNIRDPEHRAVLLTAVELLQEYDSN [L39H] | -0.812 ± 0.072 |
| GRPPQPKSVEDLLDRINLKEHMPTFLFNGYEDLDTFKLKEEEDLDELNIRDPEHRAVLLTAVELLQEYDSN [L39K] | -0.928 ± 0.11 |
| GRPPQPKSVEDLLDRINLKEHMPTFLFNGYEDLDTFKLREEEDLDELNIRDPEHRAVLLTAVELLQEYDSN [L39R] | -0.861 ± 0.059 |
| GRPPQPKSVEDLLDRINLKEHMPTFLFNGYEDLDTFKLSEEEDLDELNIRDPEHRAVLLTAVELLQEYDSN [L39S] | -0.818 ± 0.053 |

| Variant | abundance fitness |
| --- | --- |
| GRPPQPKSVEDLLDRINLKEHMPTFLFNGYEDLDTFKLMEEEDLDELNIRDPEHRAVLLTAVELLQEYDSN [L39M] | -0.319 ± 0.055 |
| GRPPQPKSVEDLLDRINLKEHMPTFLFNGYEDLDTFKLVEEEDLDELNIRDPEHRAVLLTAVELLQEYDSN [L39V] | -0.422 ± 0.049 |
| GRPPQPKSVEDLLDRINLKEHMPTFLFNGYEDLDTFKLTEEEDLDELNIRDPEHRAVLLTAVELLQEYDSN [L39T] | -0.79 ± 0.059 |
| GRPPQPKSVEDLLDRINLKEHMPTFLFNGYEDLDTFKLQEEEDLDELNIRDPEHRAVLLTAVELLQEYDSN [L39Q] | -0.892 ± 0.098 |
| GRPPQPKSVEDLLDRINLKEHMPTFLFNGYEDLDTFKLLEAEDLDELNIRDPEHRAVLLTAVELLQEYDSN [E41A] | -0.075 ± 0.048 |
| GRPPQPKSVEDLLDRINLKEHMPTFLFNGYEDLDTFKLLEVEDLDELNIRDPEHRAVLLTAVELLQEYDSN [E41V] | -0.495 ± 0.056 |
| GRPPQPKSVEDLLDRINLKEHMPTFLFNGYEDLDTFKLLEREDLDELNIRDPEHRAVLLTAVELLQEYDSN [E41R] | -0.499 ± 0.054 |
| GRPPQPKSVEDLLDRINLKEHMPTFLFNGYEDLDTFKLLEWEDLDELNIRDPEHRAVLLTAVELLQEYDSN [E41W] | -0.567 ± 0.091 |
| GRPPQPKSVEDLLDRINLKEHMPTFLFNGYEDLDTFKLLEDEDLDELNIRDPEHRAVLLTAVELLQEYDSN [E41D] | -0.419 ± 0.075 |
| GRPPQPKSVEDLLDRINLKEHMPTFLFNGYEDLDTFKLLEGEDLDELNIRDPEHRAVLLTAVELLQEYDSN [E41G] | -0.465 ± 0.07 |
| GRPPQPKSVEDLLDRINLKEHMPTFLFNGYEDLDTFKLLEHEDLDELNIRDPEHRAVLLTAVELLQEYDSN [E41H] | -0.7 ± 0.076 |
| GRPPQPKSVEDLLDRINLKEHMPTFLFNGYEDLDTFKLLESEDLDELNIRDPEHRAVLLTAVELLQEYDSN [E41S] | -0.34 ± 0.042 |
| GRPPQPKSVEDLLDRINLKEHMPTFLFNGYEDLDTFKLLEKEDLDELNIRDPEHRAVLLTAVELLQEYDSN [E41K] | -0.302 ± 0.066 |
| GRPPQPKSVEDLLDRINLKEHMPTFLFNGYEDLDTFKLLECEDLDELNIRDPEHRAVLLTAVELLQEYDSN [E41C] | -0.483 ± 0.067 |
| GRPPQPKSVEDLLDRINLKEHMPTFLFNGYEDLDTFKLLEMEDLDELNIRDPEHRAVLLTAVELLQEYDSN [E41M] | -0.578 ± 0.073 |
| GRPPQPKSVEDLLDRINLKEHMPTFLFNGYEDLDTFKLLEIEDLDELNIRDPEHRAVLLTAVELLQEYDSN [E41I] | -0.588 ± 0.072 |
| GRPPQPKSVEDLLDRINLKEHMPTFLFNGYEDLDTFKLLENEDLDELNIRDPEHRAVLLTAVELLQEYDSN [E41N] | -0.408 ± 0.061 |
| GRPPQPKSVEDLLDRINLKEHMPTFLFNGYEDLDTFKLLEFEDLDELNIRDPEHRAVLLTAVELLQEYDSN [E41F] | -0.971 ± 0.091 |
| GRPPQPKSVEDLLDRINLKEHMPTFLFNGYEDLDTFKLLELEDLDELNIRDPEHRAVLLTAVELLQEYDSN [E41L] | -0.635 ± 0.05 |
